1 substance from US20110020347A1 can be followed below.

The test addresses mouse CXCL14 (R&D Systems) (mouse) (UniProt Q9WUQ5). As to the kind of experiment: cell-based or functional assay.
Sequence of UniProt Q9WUQ5 (Q9WUQ5 23-99): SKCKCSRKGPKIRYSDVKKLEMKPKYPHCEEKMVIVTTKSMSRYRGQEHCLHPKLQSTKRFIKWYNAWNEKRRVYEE

“rat anti-mouse CXCL14 monoclonal antibody (MAB730, R&D Systems)”: the inhibition of attraction (chemotaxis) of forskolin-stimulated C2C12 cells by mouse CXCL14, antibody at 10 µg/ml, CXCL14 at 100 nM was determined as 54%.
